Reference: patent EP2649983A1, “Compounds which inhibit neuronal exocytosis (II)” (Lipotec, S.A., priority 2012, dated 2013)
Non-standard residues stand in square brackets, D forms with d. *: point of attachment. Met(O2) = CS(=O)(=O)CC[C@H](N)C(=O)O; Palmitoyl = CCCCCCCCCCCCCCCC(=O)*; NHhexadecyl = CCCCCCCCCCCCCCCCN*; Met(O) = CS(=O)CC[C@H](N)C(=O)O; Myristoyl = CCCCCCCCCCCCCC(=O)*

The binders below were run against SNARE complex (VAMP, syntaxin and SNAP-25) (UniProt P60880) (assay: SDS-PAGE of SNARE complex: VAMP + syntaxin + compound, then SNAP-25; image analysis; compound at 1 mM).
Sequence of SNARE complex (VAMP, syntaxin and SNAP-25) (P60880 whole entry, one chain of several): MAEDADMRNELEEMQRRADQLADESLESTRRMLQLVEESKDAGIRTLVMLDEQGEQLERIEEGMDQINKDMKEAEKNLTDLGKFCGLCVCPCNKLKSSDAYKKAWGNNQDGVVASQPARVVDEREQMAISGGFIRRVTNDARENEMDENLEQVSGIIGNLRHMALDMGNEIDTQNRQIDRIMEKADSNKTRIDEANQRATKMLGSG
Ac-QDFLHWM-NH2 [Ac-SEQ ID NO:2-NH2] showed a % inhibition formation SNARE complex of 37%.
Binder Ac-EDLKRWM-NH2 [Ac-SEQ ID NO:14-NH2] has a % inhibition formation SNARE complex of 83%.
Palmitoyl-EDLKRWM-NH2 [Palm-SEQ ID NO:14-NH2] was tested, and the % inhibition formation SNARE complex was 41%.
Ac-EDLKRWM-NHhexadecyl [Ac-SEQ ID NO:14-NH-(CH2)15-CH3] showed a % inhibition formation SNARE complex of 43%.
Work on Ac-NHFLNWM-NH2 [Ac-SEQ ID NO:15-NH2] yielded a % inhibition formation SNARE complex of 50%.
Work on Ac-EHLKQWM-NH2 [Ac-SEQ ID NO:1-NH2] yielded a % inhibition formation SNARE complex of 59%.
In the case of Palmitoyl-NHFLNWM-NH2 [Palm-SEQ ID NO:15-NH2], the % inhibition formation SNARE complex is reported as 22%.
Work on Myristoyl-NHFLNWM-NH2 [Myr-SEQ ID NO:15-NH2] yielded a % inhibition formation SNARE complex of 23%.
For Ac-DHFQQRM-NH2 [Ac-SEQ ID NO:24-NH2], the % inhibition formation SNARE complex was 48%.
With Palmitoyl-DHFQQRM-NH2 [Palm-SEQ ID NO:24-NH2] the % inhibition formation SNARE complex was 17%.
Ac-DHFLDWM-NH2 [Ac-SEQ ID NO:25-NH2] showed a % inhibition formation SNARE complex of 83%.
Palmitoyl-DHFLDWM-NH2 [Palm-SEQ ID NO:25-NH2] showed a % inhibition formation SNARE complex of 36%.
Binder Palmitoyl-EHLKQWM-NH2 [Palm-SEQ ID NO:1-NH2] has a % inhibition formation SNARE complex of 26%.
With Ac-DHFLNWM-NH2 [Ac-SEQ ID NO:34-NH2] the % inhibition formation SNARE complex was 14%.
For Ac-DHFLDW[Met(O)]-NH2 [Ac-SEQ ID NO:56-NH2], the % inhibition formation SNARE complex was 40%.
Ac-DHFLDW[Met(O2)]-NH2 [Ac-SEQ ID NO:61-NH2] showed a % inhibition formation SNARE complex of 44%.

What follows are binders tested against SNARE complex (VAMP, syntaxin and SNAP-25 bound to GST) (UniProt P60880) (assay: competition ELISA: VAMP on plate, SNAP-25-GST + syntaxin, anti-GST detection; compound at 0.5 mM).
Sequence of SNARE complex (VAMP, syntaxin and SNAP-25 bound to GST) (P60880 whole entry, one chain of several): as above
H-EHLKQWM-NH2 [H-SEQ ID NO:1-NH2] was tested, and the % inhibition formation SNARE complex was 30%.
For Ac-QDFLHWM-NH2 [Ac-SEQ ID NO:2-NH2], the % inhibition formation SNARE complex was 26%.
Work on Ac-QHLHNVM-NH2 [Ac-SEQ ID NO:3-NH2] yielded a % inhibition formation SNARE complex of 31%.
Work on Palmitoyl-QHLHNVM-NH2 [Palm-SEQ ID NO:3-NH2] yielded a % inhibition formation SNARE complex of 20%.
In the case of Ac-EHLKKWM-NH2 [Ac-SEQ ID NO:8-NH2], the % inhibition formation SNARE complex is reported as 11%.
Ac-QHLKEWM-NH2 [Ac-SEQ ID NO:12-NH2] was tested, and the % inhibition formation SNARE complex was 20%.
With Ac-EDLKRWM-NH2 [Ac-SEQ ID NO:14-NH2] the % inhibition formation SNARE complex was 43%.
Work on Palmitoyl-EDLKRWM-NH2 [Palm-SEQ ID NO:14-NH2] yielded a % inhibition formation SNARE complex of 18%.
In the case of Ac-EDLKRWM-NHhexadecyl [Ac-SEQ ID NO:14-NH-(CH2)15-CH3], the % inhibition formation SNARE complex is reported as 11%.
In the case of Ac-NHFLNWM-NH2 [Ac-SEQ ID NO:15-NH2], the % inhibition formation SNARE complex is reported as 48%.
Work on Ac-EHLKQWM-NH2 [Ac-SEQ ID NO:1-NH2] yielded a % inhibition formation SNARE complex of 33%.
Palmitoyl-NHFLNWM-NH2 [Palm-SEQ ID NO:15-NH2] gave a % inhibition formation SNARE complex of 18%.
In the case of Ac-DHLKKWM-NH2 [Ac-SEQ ID NO:22-NH2], the % inhibition formation SNARE complex is reported as 18%.
Work on Ac-NDLKDWM-NH2 [Ac-SEQ ID NO:23-NH2] yielded a % inhibition formation SNARE complex of 10%.
Ac-DHFQQRM-NH2 [Ac-SEQ ID NO:24-NH2] showed a % inhibition formation SNARE complex of 41%.
Palmitoyl-DHFQQRM-NH2 [Palm-SEQ ID NO:24-NH2] was tested, and the % inhibition formation SNARE complex was 36%.
Ac-DHFLDWM-NH2 [Ac-SEQ ID NO:25-NH2] was tested, and the % inhibition formation SNARE complex was 40%.
Binder Palmitoyl-DHFLDWM-NH2 [Palm-SEQ ID NO:25-NH2] has a % inhibition formation SNARE complex of 24%.
Ac-EHFLQWM-NH2 [Ac-SEQ ID NO:30-NH2] gave a % inhibition formation SNARE complex of 24%.
In the case of Ac-NHLKNWM-NH2 [Ac-SEQ ID NO:31-NH2], the % inhibition formation SNARE complex is reported as 26%.
With Palmitoyl-EHLKQWM-NH2 [Palm-SEQ ID NO:1-NH2] the % inhibition formation SNARE complex was 21%.
Ac-DHFLNWM-NH2 [Ac-SEQ ID NO:34-NH2] showed a % inhibition formation SNARE complex of 27%.
For Palmitoyl-DHFLNWM-NH2 [Palm-SEQ ID NO:34-NH2], the % inhibition formation SNARE complex was 19%.
Ac-DHFLDW[Met(O)]-NH2 [Ac-SEQ ID NO:56-NH2] was tested, and the % inhibition formation SNARE complex was 16%.
Ac-DHFLDW[Met(O2)]-NH2 [Ac-SEQ ID NO:61-NH2] gave a % inhibition formation SNARE complex of 8%.
Ac-EHLKQWM-OH [Ac-SEQ ID NO:1-OH] showed a % inhibition formation SNARE complex of 29%.

The binders below were run against SNARE complex (VAMP, syntaxin and SNAP-25 bound to GST) (UniProt P60880) (assay: competition ELISA: VAMP on plate, SNAP-25-GST + syntaxin, anti-GST detection; compound at 2.5 mM).
Binder H-EHLKQWM-NH2 [H-SEQ ID NO:1-NH2] has a % inhibition formation SNARE complex of 58%.
Binder Ac-QDFLHWM-NH2 [Ac-SEQ ID NO:2-NH2] has a % inhibition formation SNARE complex of 64%.
Binder Ac-QHLHNVM-NH2 [Ac-SEQ ID NO:3-NH2] has a % inhibition formation SNARE complex of 64%.
For Palmitoyl-QHLHNVM-NH2 [Palm-SEQ ID NO:3-NH2], the % inhibition formation SNARE complex was 51%.
Ac-EHLKKWM-NH2 [Ac-SEQ ID NO:8-NH2] showed a % inhibition formation SNARE complex of 44%.
Ac-QHLKEWM-NH2 [Ac-SEQ ID NO:12-NH2] was tested, and the % inhibition formation SNARE complex was 71%.
Work on Ac-RHFLQWM-NH2 [Ac-SEQ ID NO:13-NH2] yielded a % inhibition formation SNARE complex of 20%.
Work on Ac-EDLKRWM-NH2 [Ac-SEQ ID NO:14-NH2] yielded a % inhibition formation SNARE complex of 67%.
Palmitoyl-EDLKRWM-NH2 [Palm-SEQ ID NO:14-NH2] was tested, and the % inhibition formation SNARE complex was 42%.
Ac-EDLKRWM-NHhexadecyl [Ac-SEQ ID NO:14-NH-(CH2)15-CH3] showed a % inhibition formation SNARE complex of 35%.
Ac-NHFLNWM-NH2 [Ac-SEQ ID NO:15-NH2] gave a % inhibition formation SNARE complex of 42%.
Ac-EHLKQWM-NH2 [Ac-SEQ ID NO:1-NH2] gave a % inhibition formation SNARE complex of 63%.
Palmitoyl-NHFLNWM-NH2 [Palm-SEQ ID NO:15-NH2] was tested, and the % inhibition formation SNARE complex was 21%.
Binder Myristoyl-NHFLNWM-NH2 [Myr-SEQ ID NO:15-NH2] has a % inhibition formation SNARE complex of 19%.
Ac-DHLKKWM-NH2 [Ac-SEQ ID NO:22-NH2] showed a % inhibition formation SNARE complex of 72%.
Binder Ac-NDLKDWM-NH2 [Ac-SEQ ID NO:23-NH2] has a % inhibition formation SNARE complex of 60%.
With Ac-DHFQQRM-NH2 [Ac-SEQ ID NO:24-NH2] the % inhibition formation SNARE complex was 55%.
Palmitoyl-DHFQQRM-NH2 [Palm-SEQ ID NO:24-NH2] showed a % inhibition formation SNARE complex of 44%.
Ac-DHFLDWM-NH2 [Ac-SEQ ID NO:25-NH2] was tested, and the % inhibition formation SNARE complex was 71%.
Binder Palmitoyl-DHFLDWM-NH2 [Palm-SEQ ID NO:25-NH2] has a % inhibition formation SNARE complex of 53%.
Binder Ac-QHLKNWM-NH2 [Ac-SEQ ID NO:27-NH2] has a % inhibition formation SNARE complex of 14%.
Work on Ac-EHFLQWM-NH2 [Ac-SEQ ID NO:30-NH2] yielded a % inhibition formation SNARE complex of 71%.
In the case of Ac-NHLKNWM-NH2 [Ac-SEQ ID NO:31-NH2], the % inhibition formation SNARE complex is reported as 59%.
With Palmitoyl-EHLKQWM-NH2 [Palm-SEQ ID NO:1-NH2] the % inhibition formation SNARE complex was 47%.
Work on Ac-NHLKHWM-NH2 [Ac-SEQ ID NO:32-NH2] yielded a % inhibition formation SNARE complex of 19%.
For Ac-DHFLNWM-NH2 [Ac-SEQ ID NO:34-NH2], the % inhibition formation SNARE complex was 85%.
In the case of Palmitoyl-DHFLNWM-NH2 [Palm-SEQ ID NO:34-NH2], the % inhibition formation SNARE complex is reported as 51%.
With Ac-DHFLDW[Met(O)]-NH2 [Ac-SEQ ID NO:56-NH2] the % inhibition formation SNARE complex was 64%.
Ac-DHFLDW[Met(O2)]-NH2 [Ac-SEQ ID NO:61-NH2] gave a % inhibition formation SNARE complex of 26%.
Ac-EHLKQWM-OH [Ac-SEQ ID NO:1-OH] showed a % inhibition formation SNARE complex of 59%.

What follows are binders tested against SNARE complex (VAMP, syntaxin and SNAP-25) (UniProt P60880) (assay: SDS-PAGE of SNARE complex: VAMP + syntaxin + compound, then SNAP-25; image analysis; compound at 5 mM).
With Ac-QDFLHWM-NH2 [Ac-SEQ ID NO:2-NH2] the % inhibition formation SNARE complex was 80%.
Work on Ac-EDLKRWM-NH2 [Ac-SEQ ID NO:14-NH2] yielded a % inhibition formation SNARE complex of 100%.
Work on Palmitoyl-EDLKRWM-NH2 [Palm-SEQ ID NO:14-NH2] yielded a % inhibition formation SNARE complex of 93%.
With Ac-EDLKRWM-NHhexadecyl [Ac-SEQ ID NO:14-NH-(CH2)15-CH3] the % inhibition formation SNARE complex was 85%.
For Ac-NHFLNWM-NH2 [Ac-SEQ ID NO:15-NH2], the % inhibition formation SNARE complex was 100%.
In the case of Ac-EHLKQWM-NH2 [Ac-SEQ ID NO:1-NH2], the % inhibition formation SNARE complex is reported as 100%.
Palmitoyl-NHFLNWM-NH2 [Palm-SEQ ID NO:15-NH2] showed a % inhibition formation SNARE complex of 74%.
For Myristoyl-NHFLNWM-NH2 [Myr-SEQ ID NO:15-NH2], the % inhibition formation SNARE complex was 76%.
Ac-DHFQQRM-NH2 [Ac-SEQ ID NO:24-NH2] showed a % inhibition formation SNARE complex of 100%.
For Palmitoyl-DHFQQRM-NH2 [Palm-SEQ ID NO:24-NH2], the % inhibition formation SNARE complex was 66%.
Ac-DHFLDWM-NH2 [Ac-SEQ ID NO:25-NH2] showed a % inhibition formation SNARE complex of 100%.
Palmitoyl-DHFLDWM-NH2 [Palm-SEQ ID NO:25-NH2] showed a % inhibition formation SNARE complex of 85%.
Palmitoyl-EHLKQWM-NH2 [Palm-SEQ ID NO:1-NH2] gave a % inhibition formation SNARE complex of 72%.
Work on Ac-DHFLNWM-NH2 [Ac-SEQ ID NO:34-NH2] yielded a % inhibition formation SNARE complex of 59%.
With Ac-DHFLDW[Met(O)]-NH2 [Ac-SEQ ID NO:56-NH2] the % inhibition formation SNARE complex was 91%.
In the case of Ac-DHFLDW[Met(O2)]-NH2 [Ac-SEQ ID NO:61-NH2], the % inhibition formation SNARE complex is reported as 89%.
